These results are taken from patent US20040197338A1 (published 2004).

The experiment has as its target T1, P^His (recombinant RSV A2 phosphoprotein (P) with a Histidine tag at its amino terminus, expressed from pETP … (respiratory syncytial virus, A2 strain, UniProt P03421 1-241)).
T1 construct: also called P^His protein; recombinant P protein; not shown: N-terminal Histidine tag from vector pET16b
Kind of experiment: not described at this place (legend of FIG. 10).

Consider KLCGMLLITE [peptide N4.10], for which the binding result is recorded as “binds”.
